From publication PMC2785718, “Structure/function studies of dogfish α-crystallin, comparison with bovine α-crystallin” (Molecular Vision, 2009)

Tests used:
dogfish αB-crystallin = molecular target: T1, dogfish αB-crystallin (spiny dogfish (endogenous in lens), UniProt P02512 1-177); test: SEC; gel filtration of lens extract on Sephacryl S300 in phosphate buffered saline with sodium azide, pH 7.2, room temperature; central 50% of the α-crystallin peak rechromatographed; size by comparison with known proteins; subunits of the isolated native hetero-oligomer by SDS-PAGE (only α-crystallin polypeptides present); details: both partners purified
T1 construct: αB-crystallin polypeptide of spiny dogfish lens α-crystallin; native subunit, not separated from αA-crystallin; tryptophan at positions 9, 49 and 63; Native polypeptide from lens; It accounts for >80% of dogfish α-crystallin; also called αB polypeptide; αB subunit
T1 sequence (looked up): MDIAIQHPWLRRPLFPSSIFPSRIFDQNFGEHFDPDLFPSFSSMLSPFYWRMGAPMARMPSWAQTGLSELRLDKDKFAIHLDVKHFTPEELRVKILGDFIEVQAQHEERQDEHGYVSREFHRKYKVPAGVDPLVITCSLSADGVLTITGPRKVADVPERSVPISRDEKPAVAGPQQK

bovine αB-crystallin = molecular target: T2, bovine αB-crystallin (bovine (endogenous in lens), UniProt P02510 1-175); test: as above; details: both partners purified
T2 construct: αB-crystallin polypeptide of bovine lens α-crystallin; native subunit, not separated from αA-crystallin; Native polypeptide from lens; also called bovine αB-crystallin polypeptide
T2 sequence (looked up): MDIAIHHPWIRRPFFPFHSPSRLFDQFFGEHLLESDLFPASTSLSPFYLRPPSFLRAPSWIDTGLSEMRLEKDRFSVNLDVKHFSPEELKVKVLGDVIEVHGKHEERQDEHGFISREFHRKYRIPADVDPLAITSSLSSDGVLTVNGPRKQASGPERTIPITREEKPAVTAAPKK

B1: dogfish αA-crystallin (natural protein, spiny dogfish (endogenous in lens), UniProt P02509 1-177, looked up)
chain: MDLAIQYPWFRRSLGSFYPSRLFDQFFGEGLFDYDLFPFFSSTISPYYRQSVFRNFLDSGISEVRSEKDRFMINLNVKHFSPEELSVKIVDDYVEIHGKHAERQEDQGRVSREFHRTYHLPSNLNESAIACSLSNEGLLTLCCPKTRPGDDSNWQDRPIPVSREEKQGTQPEIRADP
notes: αA-crystallin polypeptide of spiny dogfish lens α-crystallin; native subunit, not separated from αB-crystallin; tryptophan at positions 9 and 154; Native polypeptide from lens; also called αA chain; αA-crystallin subunit
stoichiometry N (dogfish αB-crystallin): ~0.2 αA:αB

B2: bovine αA-crystallin (natural protein, bovine (endogenous in lens), UniProt P02470 1-173, looked up)
chain: MDIAIQHPWFKRTLGPFYPSRLFDQFFGEGLFEYDLLPFLSSTISPYYRQSLFRTVLDSGISEVRSDRDKFVIFLDVKHFSPEDLTVKVQEDFVEIHGKHNERQDDHGYISREFHRRYRLPSNVDQSALSCSLSADGMLTFSGPKIPSGVDAGHSERAIPVSREEKPSSAPSS
notes: αA-crystallin polypeptide of bovine lens α-crystallin; native subunit, not separated from αB-crystallin; Native polypeptide from lens; also called bovine αA chain; bovine αA-crystallin subunit
binding result (bovine αB-crystallin): binds
